Laboratory results taken from patent US20230272024A1, “FIBROBLAST GROWTH FACTOR 7 PEPTIDE” (University of Florida Research Foundation, Incorporated, priority 2020, published 2023).
“Also recorded” adds a separate entry of the source. Values belong to the molecule of their own block, whether it stands above or below them.

How the values were obtained:
Format in all cases: in vivo, mice
[1] = tested on: pS6; experiment: phosphorylated p70S6 kinase (pS6) immunostaining of urothelium after cyclophosphamide; conditions: two SC doses of 20 mg/kg at 72 and 48 hours prior to cyclophosphamide; 24 hours after cyclophosphamide; versus DMSO
[2] = molecular target: T1, FGFR2IIIb (Mus musculus, UniProt P21803); experiment: pFRS2α immunostaining of bladder urothelium after subcutaneous ligand; conditions: for onset of pFRS2α staining (initial staining observed) after administration: mouse, in vivo
T1 construct: from tissue; host or cells: bladder urothelium of FVB/N mice (in vivo)
Protocol: (§1) Uninjured mice were treated with 0.2 mL of 10% DMSO, 40 mg/kg FGF7-p, or […] full length FGF7 (n=2 mice per group, mice were about 25 g in weight) administered by subcutaneous injection. At the indicated times (Tables 1 and 2, FIGS. 1 and 2) bladders were harvested and immunostained for pFRS2α and pAKT, markers of urothelial protection. Immunostaining of bladder tissues from each group was repeated. Tables 1, 3, and 4 show the staining pattern for pFRS2α and pAKT over time in mice treated with full length FGF7.
(§2) After FGF7 binds to FGFR2IIIb, pFRSα appears first followed by pAKT. Activation of pAKT correlates with the anti-apoptotic/cytoprotective effects of FGF7 in the bladder urothelium.
(§3) Mice treated with DMSO control, full length FGF7, or FGF7-p were analyzed for activation of FGFR2IIIb and pAKT. Phosphorylated FRS2α and AKT levels were examined by immunostaining. After administration of full length FGF7, initial pFRS2α staining was observed as early as 15 hours later and pAKT staining was observed by 30 hours and peaked at 48 hours (see Tables 1-4 above). 48 hours after administration of 20 mg/kg or 40 mg/kg FGF7-p samples, strong FRS2α staining was observed.

[3] = tested on: pAKT; experiment: pAKT immunostaining of urothelium after cyclophosphamide; conditions: two SC doses of 20 mg/kg at 72 and 48 hours prior to cyclophosphamide, 24 hours after cyclophosphamide
[4] = molecular target: T1, FGFR2IIIb; experiment: pAKT immunostaining of bladder urothelium after subcutaneous ligand; conditions: for pAKT staining: uninjured mice, full length FGF7 5 mg/kg, FGF7-p 40 mg/kg
Protocol: as §1, §2, §3
To assess whether pATK expression was also increase in FGF7-p treated mice, bladders were analyzed for pATK staining at 72 hours. To confirm pAKT staining was robust in bladder of FGF7-p of treated mice at 72 hours, additional staining for DMSO and FGF7-p (40 mg/kg) treated animals at 72 hours and staining on old samples from full length FGF7-treated samples (5 mg/kg) at 30 hours, 48 hours and 96 hours (n=2 mice per group) was performed. […] Further, robust pAKT signal was seen throughout the urothelium.

[5] = tested on: bladder urothelium; experiment: cyclophosphamide-induced urothelial injury and apoptosis (H&E, TUNEL)
Protocol: FVB/N mice were administered subcutaneous doses 5 mg/kg, 20 mg/kg, 40 mg/kg of FGF7-p, 5 mg/kg of full length FGF7, or 10% DMSO alone (vehicle). After 24 hours, 150 mg/kg of cyclophosphamide was administered to the mice. Mice were the sacrificed and bladder tissues examined for signs of urothelial injury at various times.
(§4) Mice were administered two doses of 20 mg/kg of subcutaneous (SQ) FGF7-p (or 10% DMSO vehicle) at 72 hours and 48 hours prior to intraperitoneal (IP) injection of 150 mg/kg cyclophosphamide (n=3 female mice per group). Mice were sacrificed and bladders were harvested 24 hours after cyclophosphamide injection. The bladders were fixed in 4% paraformaldehyde in phosphate buffered saline and embedded in paraffin. The paraffin embedded bladders were then serially sectioned with a microtome. Hematoxylin and eosin staining was performed on the sections.

[6] = tested on: pBAD; experiment: phosphorylated BAD (pBAD) immunostaining of urothelium after cyclophosphamide; conditions: two SC doses of 20 mg/kg at 72 and 48 hours prior to cyclophosphamide, 24 hours after cyclophosphamide
Protocol: as §4

[7] = tested on: bladder urothelium; experiment: radiation-induced bladder urothelial apoptosis (TUNEL); conditions: two doses 20 mg/kg SQ at 72 and 48 hours prior to 10 Gray radiation, one day later
Protocol: The ability of FGF7p to inhibit radiation injury as assesses. Two doses of FGF7p (20 mg/kg SQ) or 2.5% DMSO/PBS vehicle was administered to anesthetized female mice (N=2) at 72 hours and 48 hours prior to exposing the mice to 10 Gray (1000 rads) radiation. Instead of directly exposing bladders to irradiation, we transurethrally filled bladders with 300 μL of saline and focused the radiation beam over the bladder bulge on the depilated abdominal wall. One day later, we noted many TUNEL+ urothelial apoptotic cells in the vehicle-treated mice (FIG. 4, left panel). […] Thus, similar to KGF, systemic FGF7p inhibited or blocked radiation-induced apoptosis.

[8] = two SC doses of 20 mg/kg at 72 and 48 hours prior to IP 150 mg/kg cyclophosphamide, 24 hours after cyclophosphamide

T1 sequence (P21803 22-707 isoform P21803-2 limits assumed): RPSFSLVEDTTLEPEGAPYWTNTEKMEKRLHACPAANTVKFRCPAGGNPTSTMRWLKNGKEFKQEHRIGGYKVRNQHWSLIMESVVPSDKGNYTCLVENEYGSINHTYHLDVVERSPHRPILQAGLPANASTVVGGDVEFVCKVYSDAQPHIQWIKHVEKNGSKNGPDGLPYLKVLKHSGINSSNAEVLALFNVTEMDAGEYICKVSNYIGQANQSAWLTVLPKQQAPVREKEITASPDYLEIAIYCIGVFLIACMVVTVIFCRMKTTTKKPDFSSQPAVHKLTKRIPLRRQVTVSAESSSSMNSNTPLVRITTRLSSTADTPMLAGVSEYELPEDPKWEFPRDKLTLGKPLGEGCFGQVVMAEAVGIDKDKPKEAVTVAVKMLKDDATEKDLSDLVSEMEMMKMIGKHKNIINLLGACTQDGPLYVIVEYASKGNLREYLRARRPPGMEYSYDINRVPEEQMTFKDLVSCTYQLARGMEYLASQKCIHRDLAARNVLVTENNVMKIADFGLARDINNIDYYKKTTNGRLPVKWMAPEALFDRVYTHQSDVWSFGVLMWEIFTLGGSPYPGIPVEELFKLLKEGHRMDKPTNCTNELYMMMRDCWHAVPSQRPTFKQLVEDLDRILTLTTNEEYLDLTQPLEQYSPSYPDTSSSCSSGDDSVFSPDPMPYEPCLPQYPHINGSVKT

pS6 urothelial staining [1]: much stronger staining | pFRS2α staining ([2]; 48 hours after administration of 5 mg/kg): Less, but still significant | pFRS2α staining ([2]; 48 hours after administration of 20 mg/kg): strong | onset of pFRS2α staining (initial staining observed) after administration [2]: delayed
Molecule: YASAKWTHNGGEMFVALNQ (listed as Homo sapiens) [FGF7-p, chemically synthesized 19 amino acid peptide of FGF7, FGFR2IIIb agonist]
pFRS2α staining ([2]; 24 h after SC dose, uninjured mice, full length FGF7 5 mg/kg, FGF7-p 40 mg/kg): weak and patchy; also recorded: Light/patchy (similar to control) | pAKT urothelial staining [3]: strong signal throughout the urothelium | pAKT staining ([4]; 24 h after SC dose): absent | pAKT staining ([4]; 48 h after SC dose): absent | pAKT staining ([4]; 72 h after SC dose): robust | protection against urothelial apoptosis ([5]; single SC dose 5, 20 or 40 mg/kg 24 hours before 150 mg/kg cyclophosphamide, at 48 hours, versus DMSO alone): no signs of protection against urothelial apoptosis | urothelial apoptosis, TUNEL staining [5, 8]: intact and non-apoptotic urothelial cells | urothelial injury, hematoxylin and eosin staining [5, 8]: almost no urothelial injury | pBAD urothelial staining [6]: strong staining | radiation-induced urothelial apoptosis, TUNEL staining [7]: many regions with almost no (middle panel) or minimal urothelial apoptosis

onset of pFRS2α staining (initial staining observed) after administration [2]: ≤ 15 hours | pAKT staining first observed after administration ([4]; mouse, in vivo): ≤ 30 hours | peak of pAKT staining after administration ([4]; mouse, in vivo): 48 hours
B1: full length FGF7: Fibroblast growth factor 7 (keratinocyte growth factor), full length ligand for FGFR2 IIIb isoform, used as comparator (protein)
chain: CNDMTPEQMATNVNCSSPERHTRSYDYMEGGDIRVRRLFCRTQWYLRIDKRGKVKGTQEMKNNYNIMEIRTVAVGIVAIKGVESEFYLAMNKEGKLYAKKECNEDCNFKELILENHYNTYASAKWTHNGGEMFVALNQKGIPVRGKKTKKEQKTAHFLPMAIT
